Where a chain is given by its changes, count along the chain named. Names and notes keep the numbering of the source. Read-outs that look alike come from different tables or passages of the source.

The target in experiment [1] is T1, amyloid peptide AβpE3-42 (UniProt P05067 674-713, N-terminal pyroglutamate (pE) at Aβ position 3).
T1 construct: domain: AβpE3-42; Bought synthetic peptide; also called AβpGlu3-42; Aβ(Glp3)3-42
Nature of the experiment: ELISA, plate coated with AβpE3-42, antibody titrated, A650nm. On the procedure:
(§1) Each well of a […] MaxiSorp plate (Nunc) was coated with 50 μL aliquots of 200 ng/mL of 1-42, pE3-42 or 4-42 amyloid peptides in PBS and incubated overnight at 4° C. The wells were washed 3× with PBS-T (0.1% Tween20) and blocked with 150 μL of 5% milk in PBS/0.05% Tween20 per well. The wells were then incubated at RT with shaking for 1 hour and washed 3× with PBS-T (0.1% Tween20). 50 μl of primary antibody serially diluted in 1% milk PBS/0.05% Tween20 was added to the wells of the assay plate using a 3-fold dilution series starting from ˜100 μg/mL. The incubation and washing step was then repeated. Anti-human kappa chain HRP (Sigma A7164-1 mL) was diluted 4,000-fold in PBS/1% milk/0.05% Tween20 and 50 μl added to each well. The incubation and washing step was repeated and then 75 μL of K-Blue substrate (Neogen) was added per well and incubated for 5-10 minutes at RT. The reaction was stopped by adding 50 μl of RED STOP solution (Neogen) to each well and the optical density was read at 650 nm.

Experiment [2] concerns the target T1, amyloid peptide AβpE3-42. The experiment is described as above. How it is done:
as §1
This is another data set of the same source.

Experiment [3] concerns the target T2, amyloid peptide Aβ4-42 (UniProt P05067 675-713).
T2 construct: domain: Aβ4-42; Bought synthetic peptide; also called Anaspec Aβ4-42
Put plainly: ELISA, plate coated with Aβ4-42 from PSL, antibody titrated, A650nm.

For experiment [4], the target named is T1, amyloid peptide AβpE3-42. Nature of the experiment: ELISA, plate coated with AβpE3-42 from PSL, antibody titrated, A650nm.
The target in experiment [5] is T1, amyloid peptide AβpE3-42. The description is as above. How it is done: as §1
The source holds these as a separate data set.

The target of experiment [6] is T1, amyloid peptide AβpE3-42. Nature of the experiment: ELISA, plate coated with AβpE3-42 (target by legend paragraph 24), antibody titrated, A650nm. On the procedure: as §1
For experiment [7], the target named is T1, amyloid peptide AβpE3-42. Put plainly: ELISA, plate coated with AβpE3-42 from California peptides (Cal Hu), antibody titrated, A650nm.
Experiment [8] concerns the target T1, amyloid peptide AβpE3-42. Put plainly: ELISA, plate coated with AβpE3-42, antibody titrated, signal as % Max. How it is done: as §1
The target in experiment [9] is T2, amyloid peptide Aβ4-42. Nature of the experiment: SPR, Biacore T200; SPR (Biacore T200), apparent KD comparable to the mouse antibody.
The target in experiment [10] is T3, amyloid peptide Aβ1-42 (UniProt P05067 672-713).
T3 construct: domain: Aβ1-42; Bought synthetic peptide; also called amyloid full length peptide Aβ1-42
T3 sequence (P05067 672-713 limits assumed): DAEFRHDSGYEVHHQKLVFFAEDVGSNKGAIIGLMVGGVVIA
Nature of the experiment: ELISA, plate coated with Aβ1-42 (target by legend paragraph 23), antibody titrated, signal as % Max; the value lies beyond the highest concentration shown.

For experiment [11], the target named is T1, amyloid peptide AβpE3-42. Nature of the experiment: ELISA, plate coated with AβpE3-42 (PSL), antibody titrated, blank-subtracted OD650. On the procedure:
as §1

Experiment [12] addresses T2, amyloid peptide Aβ4-42. Nature of the experiment: ELISA, plate coated with Anaspec Aβ4-42, antibody titrated after incubation in PBS or in mouse, human or cynomolgus serum, blank-subtracted OD650.
Experiment [13] concerns the target T1, amyloid peptide AβpE3-42. Put plainly: ELISA, plate coated with AβpE3-42, antibody titrated, blank-subtracted OD650. How it is done:
as §1
Therefore, F67Y, Y68N, I39W and an additional variant that combined F67Y and Y68N were generated (Table 2) and binding to Aβ1-42, AβpE3-42 and 4-42 was investigated. […] Five additional variants of the heavy chain were generated with the following mutations, S53M, S53H, R100H, L103R and L103H (Table 4b). In addition, five variants of the light chain were also generated RKF (N92W), RKG (N92Y), RKH (N92H), RKI (L94R) and RIC (L94H).

For experiment [14], the target named is T2, amyloid peptide Aβ4-42. Put plainly: ELISA, plate coated with Anaspec Aβ4-42, antibody titrated after incubation in PBS or in mouse, human or cynomolgus serum, blank-subtracted OD650 [continued].
Experiment [15] addresses T1, amyloid peptide AβpE3-42. Put plainly: assay not given; binding to Aβ1-42, AβpE3-42 and 4-42 was investigated.
In experiment [16] the target is T2, amyloid peptide Aβ4-42. The experiment is described as above.

T1 sequence (P05067 674-713 limits assumed): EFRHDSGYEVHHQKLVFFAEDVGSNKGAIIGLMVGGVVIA
T2 sequence (P05067 675-713 limits assumed): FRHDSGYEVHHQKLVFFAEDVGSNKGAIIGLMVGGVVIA

B1: murine NT4X-167 antibody (antibody, V domains shown)
VH: QVQLKQSGPGLVQPSQSLSITCTVSGFSLTSYGIHWVRQSPGKGLEWLGVMWSGGITDFYAAFISRLSISRDISKSQVFFKMNSLQADDTAIYYCARGSRYALDYWGQGTSVSVSS
VL: DIQMTQTTSSLSASLGDRVTISCRASQDISNYLNWYQQKPDGTVKLLIYYTSRLHSGVPSRFSGSGSGTDYSLTISNLEQEDIATYFCQQGNTLPPTFGGGTKLEIK
notes: Mouse hybridoma antibody; also called original mouse NT4X antibody
On to B1, for which the 50% effective concentration (EC50 (read off the curve)) in experiment [1] and in experiment [2] was around 0.5 µg/mL in each case. Further, the binding result in experiment [3] was “binds”. In addition, the EC50 in experiment [4] was found to be 24.9 nM; in experiment [5], 24.9 nM; in experiment [6], 2.4 µg/mL; in experiment [7] it was 15.7 nM.

B2: chimeric NT4X-167 antibody (antibody, V domains shown)
VH: B1 VH
VL: B1 VL
notes: also called chimeric positive control antibody
In the case of B2, the 50% effective concentration (EC50 (read off the curve)) in experiment [1] and in experiment [2] was around 0.07 µg/mL each time. Moreover, the EC50 in experiment [5] is 47.1 nM; in [8] it was 0.118 µg/mL; in experiment [6], 0.227 µg/mL; in experiment [10] it was 214 µg/mL. Besides, the binding result in experiment [9] is “binds”.

B3: humanized NT4X-167 RHS/RKA (antibody, mouse IgG1, V domains shown)
VH: QVQLQESGPGLVKPSETLSLTCTVSGFSLSSYGIHWIRQPPGKGLEWIGVMWSGGITDFYAAFISRVTISRDTSKNQVSLKLSSVTAADTAVYYCARGSRYALDYWGQGTLVTVSS
VL: DIQMTQSPSSLSASVGDRVTITCRASQDISNYLNWYQQKPGKAPKLLIYYTSRLHSGVPSRFSGSGSGTDFTLTISSLQPEDFATYYCQQGNTLPPTFGGGTKLEIK
notes: also called SA; RHS/KA
For the molecule B3, the binding result in experiment [11] and in experiment [12] was “binds” in each case.

B4: humanized NT4X-167 RHS7/RKA (antibody, mouse IgG1, V domains shown)
VH: B3 VH with D58N, A61P, A62S, F63L, I64K
VL: B3 VL
notes: also called S7A
Take B4: the binding result in experiment [13] and in experiment [14] was “binds” each time.

B5: humanized NT4X-167 RHS71/RKA (antibody, V domains shown)
VH: B3 VH with D58N, F59Y, A61P, A62S, F63L, I64K
VL: B3 VL
notes: also called RHS71 (F67Y) with RKA
For B5, the binding result in experiment [15] and in experiment [16] was “binds” each time.

B6: humanized NT4X-167 RHL/RKA (antibody, mouse IgG1, V domains shown)
VH: B3 VH with L29I, S30T, I48L, V67L, L82M
VL: B3 VL
Regarding B6, the binding result in experiment [1] was “binds”.

B7: humanized NT4X-167 RHK/RKA (antibody, mouse IgG1, V domains shown)
VH: B3 VH with F27G, S30T, I48L, V67L, L82M
VL: B3 VL
In the case of B7, in [1], the binding result is on record as “binds”.

B8: humanized NT4X-167 RHM/RKA (antibody, mouse IgG1, V domains shown)
VH: B3 VH with I48L, V67L, L82M
VL: B3 VL
For B8, in experiment [1], the binding result is “binds”.

B9: humanized NT4X-167 RHR/RKA (antibody, mouse IgG1, V domains shown)
VH: B3 VH with S30T, I48L, V67L
VL: B3 VL
Regarding B9, the binding result in experiment [1] is listed as “binds”.

B10: humanized NT4X-167 RHN/RKA (antibody, mouse IgG1, V domains shown)
VH: B3 VH with S30T, V67L, L82M
VL: B3 VL
For the molecule B10, in [1], the binding result is “binds”.

B11: humanized NT4X-167 RHP/RKA (antibody, mouse IgG1, V domains shown)
VH: B3 VH with S30T, I48L, V67L, R71V, L82M
VL: B3 VL
Consider B11, for which the binding result in [1] is recorded as “binds”.

B12: (rcNT4X_S8A) R1 (antibody, V domains shown)
VH: B3 VH with H35S, D58N, A61P, A62S, F63L, I64K
VL: B3 VL
notes: also called RHS8/RKA
As to B12, the binding result in [13] was “no binding (tested: about 120 ug/ml)”.

B13: humanized NT4X-167 RHQ/RKA (antibody, mouse IgG1, V domains shown)
VH: B3 VH with S30T, I48L, V67L, V78F, L82M
VL: B3 VL
Regarding B13, in experiment [1], the binding result was “binds”.

B14: humanized NT4X-167 RHT/RKA (antibody, mouse IgG1, V domains shown)
VH: B3 VH with S30T
VL: B3 VL
notes: also called TA
As to B14, the binding result in experiment [11] is on record as “binds”.

B15: humanized NT4X-167 RHO/RKA (antibody, mouse IgG1, V domains shown)
VH: B3 VH with S30T, I48L, L82M
VL: B3 VL
On to B15, for which the binding result in experiment [1] is reported as “binds”.

B16: (rcNT4X_S6A) R1 (antibody, V domains shown)
VH: B3 VH with H35S
VL: B3 VL
notes: also called RHS6/RKA
Regarding B16, the binding result in experiment [13] is on record as “no binding (tested: about 120 ug/ml)”.

B17: humanized NT4X-167 RHB/RKA (antibody, mouse IgG1, V domains shown)
VH: B3 VH with S30T, I48L, V67L, L82M
VL: B3 VL
notes: also called BA
Turning to B17, the figures for the 50% effective concentration (EC50) in experiment [8] and in experiment [6] were 0.341 µg/mL and 3.86 µg/mL, respectively.

B18: humanized NT4X-167 RHB/RKB (antibody, mouse IgG1, V domains shown)
VH: B3 VH with S30T, I48L, V67L, L82M
VL: B3 VL with K42G, F71Y, Y87F
notes: also called HB/KB
As to B18, the figures for the concentration giving a half-maximal response (EC50) in experiment [8] and in experiment [6] were 0.377 µg/mL and 2.74 µg/mL, respectively.

The record behind these values is patent US20210347867A1 (GEORG AUGUST UNIVERSIT T G TTINGEN STIFTUNG FFENTLICHEN …, published 2021).
